We go through 4 molecules from patent US20250163127A1 (published 2025).

For one assay, the target named is CD28 (human, UniProt P10747). The assay is described as follows: cell-based or functional assay.
The target of a further assay is PD-1 (human, UniProt Q15116). Briefly: cell-based or functional assay.
Another assay addresses CD2 (Homo sapiens (Human), UniProt P06729). Briefly: flow cytometry, CHO-CD2 cells.
The target of another assay is human PD-1 (human, UniProt Q15116). Briefly: flow cytometry, Jurkat/IL-2/PD-1 cells.

For orientation: EC50 means the concentration giving half of the maximal effect. A higher EC50 goes with weaker potency.

B1: PD-L1 303-PD-L1 303-ICOSL 2264-ICOSL 2264 (other)
chain: FTVTVPKDLYVVEYGSNMTIECKFPVEKQLDLAALIVYWEMEGKDIIQFVHGEEDQKAQHSSYRQRARLLKDQLSLGNAALQITDVKLQDAGVYRCMISYGGGADYKRITVKVNAGGGGSGGGGSGGGGSFTVTVPKDLYVVEYGSNMTIECKFPVEKQLDLAALIVYWEMEGKDIIQFVHGEEDQKAQHSSYRQRARLLKDQLSLGNAALQITDVKLQDAGVYRCMISYGGGADYKRITVKVNAGGGGSGGGGSGGGGSDTQEKEVRAMVGSDVELSCACPEGSRFDLNDVYVYWQTSESKTVVTYHIPQHSSLEYVDSRYRNRALMSPAGMLRGDFSLRLFNVTPQDEQKFHCLVLSRSLGFQEVLSVEVTLHVAANFSVGSGGSGGGGSGGGGSDTQEKEVRAMVGSDVELSCACPEGSRFDLNDVYVYWQTSESKTVVTYHIPQHSSLEYVDSRYRNRALMSPAGMLRGDFSLRLFNVTPQDEQKFHCLVLSRSLGFQEVLSVEVTLHVAANFSVDYKDDDDKHHHHHH
With B1, the “% CD25 Hi FoxP3 +” value in the assay with CD28 and in the assay with PD-1 was 4.28 % at 100 nM in each case.

B2: CD58 3650-CD58 3650-PD-L1 303-PD-L1 303 (other)
chain: SQQIYGVVYGNVTFHVPSNVPLKEVLWKKQKDKVAELENSEFRAFSSFKNRVYLDTVSGSLTIYNLTSSDEDEYEMESPNITDTMKFFLYVLESGGGGSGGGGSGGGGSSQQIYGVVYGNVTFHVPSNVPLKEVLWKKQKDKVAELENSEFRAFSSFKNRVYLDTVSGSLTIYNLTSSDEDEYEMESPNITDTMKFFLYVLESGGGGSGGGGSGGGGSFTVTVPKDLYVVEYGSNMTIECKFPVEKQLDLAALIVYWEMEGKDIIQFVHGEEDQKAQHSSYRQRARLLKDQLSLGNAALQITDVKLQDAGVYRCMISYGGGADYKRITVKVNAGSGGSGGGGSGGGGSFTVTVPKDLYVVEYGSNMTIECKFPVEKQLDLAALIVYWEMEGKDIIQFVHGEEDQKAQHSSYRQRARLLKDQLSLGNAALQITDVKLQDAGVYRCMISYGGGADYKRITVKVNAGSGGGGSDYKDDDDKHHHHHH
Take B2: the 50% effective concentration (EC50) was 24.4 nM in the assay with CD2 and 19.5 nM with human PD-1.

B3: CD58 3650-PD-L1 303-PD-L1 303-CD58 3650 (other)
chain: SQQIYGVVYGNVTFHVPSNVPLKEVLWKKQKDKVAELENSEFRAFSSFKNRVYLDTVSGSLTIYNLTSSDEDEYEMESPNITDTMKFFLYVLESGGGGSGGGGSGGGGSFTVTVPKDLYVVEYGSNMTIECKFPVEKQLDLAALIVYWEMEGKDIIQFVHGEEDQKAQHSSYRQRARLLKDQLSLGNAALQITDVKLQDAGVYRCMISYGGGADYKRITVKVNAGGGGSGGGGSGGGGSFTVTVPKDLYVVEYGSNMTIECKFPVEKQLDLAALIVYWEMEGKDIIQFVHGEEDQKAQHSSYRQRARLLKDQLSLGNAALQITDVKLQDAGVYRCMISYGGGADYKRITVKVNAGSGGSGGGGSGGGGSSQQIYGVVYGNVTFHVPSNVPLKEVLWKKQKDKVAELENSEFRAFSSFKNRVYLDTVSGSLTIYNLTSSDEDEYEMESPNITDTMKFFLYVLESGSGGGGSDYKDDDDKHHHHHH
On to B3, for which the half-maximal effective concentration (EC50) came to 14.4 nM with CD2 and 6.6 nM with human PD-1.

B4: PD-L1 303-ICOSL 2264-PD-L1 303 (other)
chain: FTVTVPKDLYVVEYGSNMTIECKFPVEKQLDLAALIVYWEMEGKDIIQFVHGEEDQKAQHSSYRQRARLLKDQLSLGNAALQITDVKLQDAGVYRCMISYGGGADYKRITVKVNAGGGGSGGGGSGGGGSDTQEKEVRAMVGSDVELSCACPEGSRFDLNDVYVYWQTSESKTVVTYHIPQHSSLEYVDSRYRNRALMSPAGMLRGDFSLRLFNVTPQDEQKFHCLVLSRSLGFQEVLSVEVTLHVAANFSVGGGGSGGGGSGGGGSFTVTVPKDLYVVEYGSNMTIECKFPVEKQLDLAALIVYWEMEGKDIIQFVHGEEDQKAQHSSYRQRARLLKDQLSLGNAALQITDVKLQDAGVYRCMISYGGGADYKRITVKVNADYKDDDDKHHHHHH
For B4, the “% CD25 Hi FoxP3 +” value with CD28 and with PD-1 was 23.2 % at 100 nM each time.
